Test results: CN103910796A

Key:
[1] = biological target: 狂犬病毒G蛋白 (rabies virus G protein, RVG) (rabies virus (strain not stated))
[2] = biological target: 狂犬病毒(CVS株); assay: cell-based or functional assay
[3] = biological target: 狂犬疫苗 (rabies vaccine used as ELISA coating antigen); assay: ELISA, rabies vaccine coated on plate, HRP goat anti-human IgG

B1: 全人源的单克隆的抗狂犬病毒中和抗体TRN006 (antibody, V domains shown)
VH: QVQLQESGPGLVKPSETLSLTCTVSGGSISSTTSYWGWIRQPPGKGLEWIGSIYYSGSTYYNPSLKSRVTISVDTSKNQFSLKLRSVTAADTAVYFCARHSVTAAYFNYWGQGTLVSVSS
VL: DIQMTQSPSSVSASVGDRVTITCRASEGISSWLAWYQQKPGRAPKVLIHGASSLQSGVPSRFSGSGSGADFTLSISSLQPEDFATYYCQQANSFPYTFGQGTKLEIKR
B1 gave a fold of MFI over negative control antibody [1] of 300 fold, a fold of MFI over standard serum [1] of 17 fold and a 保护效价 (RFFIT, Reed & Muench法) [2] of 3040 IU/ml. For the same binder, the antibody concentration at which binding is still seen [3] was 0.0024 µg/mL and the dilution fold at which binding is still seen [3] was 50000 fold.
